Reference: patent US20140112930A1 (published 2014)
Blank lines part the entries; values can stand above or below the binder they belong to.

What was measured:
Biotin-hBA2 = molecular target: T1, Biotin-hBA2 (human, biotinylated (sites not given)); assay: blocking ELISA, biotin-hBA2 to hTie-2
T1 construct: hBA2 consists of two dimers; also called biotinylated hBA2; human bow-Ang2

Human Ang-2FD-hFc = molecular target: T2, Human Ang-2FD-hFc (human); assay: blocking ELISA, 16.67 nM antibody, Ang-2FD-hFc to coated hTie-2-mFc
T2 construct: also called dimeric human Ang-2FD; human Ang-2FD protein conjugated to human IgG

Mouse Ang-2FD-hFc = molecular target: T3, Mouse Ang-2FD-hFc (mouse (Mus musculus)); assay: as above
T3 construct: also called dimeric mouse Ang-2FD

Monkey Ang-2FD-hFc = molecular target: T4, Monkey Ang-2FD-hFc (monkey (Macca fascicularis)); assay: as above
T4 construct: also called dimeric monkey Ang-2FD

hAng-1-WT [1] = molecular target: T5, hAng-1-WT (human, UniProt Q15389 20-498, limits assumed); assay: SPR, 1 uM blocker premixed with 10 nM hAng-1-WT, over hTie-2-mFc surface
T5 construct: a tag is not mentioned there; also called full-length wild-type human Ang-1
T5 sequence (looked up): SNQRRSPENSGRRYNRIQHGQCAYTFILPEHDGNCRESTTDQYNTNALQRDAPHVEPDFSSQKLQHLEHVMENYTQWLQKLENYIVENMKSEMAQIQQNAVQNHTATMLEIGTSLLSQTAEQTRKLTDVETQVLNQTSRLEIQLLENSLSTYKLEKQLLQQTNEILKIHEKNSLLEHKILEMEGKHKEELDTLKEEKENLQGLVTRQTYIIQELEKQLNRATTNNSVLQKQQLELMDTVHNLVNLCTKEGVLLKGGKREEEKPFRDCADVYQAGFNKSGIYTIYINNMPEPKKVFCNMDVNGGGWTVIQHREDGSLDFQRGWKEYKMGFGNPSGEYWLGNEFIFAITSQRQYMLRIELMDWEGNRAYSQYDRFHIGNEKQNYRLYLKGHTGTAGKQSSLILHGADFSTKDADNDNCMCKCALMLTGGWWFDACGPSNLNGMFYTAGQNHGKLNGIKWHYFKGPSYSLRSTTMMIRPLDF
Procedure: (§1) In this experiment, a human Tie-2 full-length extracellular domain construct (hTie-2-mFc-ecto) was amine-coupled on a BIACORE™ chip to create a receptor coated surface. […] The equilibrated solutions were injected over the receptor surfaces at 5 μL/min for 5 minutes at 25° C.

hAng-1-WT [2] = molecular target: T5, hAng-1-WT; assay: SPR, 1 uM blocker premixed with 10 nM hAng-1-WT, over hTie-2-mFc surface; RU of hAng-1 bound
Procedure: as §1

[3] = molecular target: T6, human bow-Ang-2 tetrameric construct (hBA2) (human); assay: SPR, captured Ab
T6 construct: also called human BA2; hBA2-hIgG1

Monomeric hAng-2FD [4] = molecular target: T7, Monomeric hAng-2FD (human, UniProt O15123 282-496); assay: SPR, captured Ab
T7 construct: also called fibrinogen-like domain of human Ang2; Human Ang-2FD
T7 sequence: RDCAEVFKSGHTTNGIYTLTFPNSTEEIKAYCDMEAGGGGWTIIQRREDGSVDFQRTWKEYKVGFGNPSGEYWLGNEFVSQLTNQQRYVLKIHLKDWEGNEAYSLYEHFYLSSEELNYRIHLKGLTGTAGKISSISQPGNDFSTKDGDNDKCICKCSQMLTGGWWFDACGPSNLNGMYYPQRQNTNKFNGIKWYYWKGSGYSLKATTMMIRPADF

[5] = molecular target: T8, wild-type human Ang-2 (hAng-2-WT) (human, UniProt O15123 19-496); assay: SPR, captured Ab
T8 construct: called full-length wild-type; also called Full-length wild-type human Ang-2
T8 sequence: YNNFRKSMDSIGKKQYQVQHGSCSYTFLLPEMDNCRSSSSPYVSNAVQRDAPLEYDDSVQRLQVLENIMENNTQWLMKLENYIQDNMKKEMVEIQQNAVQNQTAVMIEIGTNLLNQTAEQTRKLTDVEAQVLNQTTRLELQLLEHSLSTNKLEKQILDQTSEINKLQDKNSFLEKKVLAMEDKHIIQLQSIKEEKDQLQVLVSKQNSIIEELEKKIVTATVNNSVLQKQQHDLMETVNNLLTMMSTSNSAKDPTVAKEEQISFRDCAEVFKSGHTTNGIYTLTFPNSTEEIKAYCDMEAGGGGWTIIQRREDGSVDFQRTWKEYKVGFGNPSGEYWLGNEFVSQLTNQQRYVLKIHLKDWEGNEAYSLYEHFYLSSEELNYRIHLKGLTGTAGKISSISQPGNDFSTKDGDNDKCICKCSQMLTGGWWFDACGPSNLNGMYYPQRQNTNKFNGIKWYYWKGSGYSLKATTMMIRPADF

[6] = molecular target: T9, Dimeric Human Ang-2FD conjugated to human IgG1 (human); assay: SPR, captured Ab, RT
T9 construct: also called Human Ang-2FD-hFc; hAng-2FD-hFc
Method in brief: (§2)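 Antibody captured on amine-coupled goat anti-mouse IgG, anti-human κ or anti-human IgG polyclonal surfaces on a CM5 chip; antigen binding and dissociation followed in real time at room temperature. KD and complex dissociation half-life derived by kinetic analysis.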

[7] = molecular target: T10, Dimeric Mouse Ang-2FD conjugated to human IgG1 (mouse (Mus musculus); human); assay: SPR, captured Ab, RT
T10 construct: also called Mouse Ang-2FD-hFc
Method in brief: as §2

[8] = molecular target: T11, Dimeric Monkey Ang-2FD conjugated to human IgG1 (monkey (Macca fascicularis); human); assay: SPR, captured Ab, RT
T11 construct: also called Monkey Ang-2FD-hFc
Method in brief: as §2

[9] = molecular target: T10, Dimeric Mouse Ang-2FD conjugated to …; assay: SPR, captured Ab, 25°C
Procedure: (§3) Each selected antibody or control construct was captured at a flow rate of 40 μL/min for 1 minute on a goat anti-human kappa polyclonal antibody surface created through direct chemical coupling to a BIACORE™ chip to form a captured antibody surface.

[10] = molecular target: T11, Dimeric Monkey Ang-2FD conjugated to …; assay: SPR, captured Ab, 25°C
Procedure: as §3

[11] = molecular target: T12, Dimeric Human Ang-2FD-mFc (human, UniProt O15123 282-496); assay: SPR, captured Ab, 25°C
T12 construct: also called hAng-2FD-mFc; hAng2-FD-mFc; not shown: mouse Fc (mFc)
T12 sequence: T7 sequence
Procedure: as §3

[12] = molecular target: T10, Dimeric Mouse Ang-2FD conjugated to …; assay: SPR, captured Ab, 37°C
Procedure: as §3

[13] = molecular target: T11, Dimeric Monkey Ang-2FD conjugated to …; assay: SPR, captured Ab, 37°C
Procedure: as §3

[14] = molecular target: T12, Dimeric Human Ang-2FD-mFc; assay: SPR, captured Ab, 37°C
Procedure: as §3

Monomeric hAng-2FD [15] = molecular target: T7, Monomeric hAng-2FD; assay: SPR, captured Ab, 25°C
Procedure: (§4) Each selected antibody or control construct was captured at a flow rate of 40 μL/min for 1 minute on a goat anti-human IgG polyclonal antibody surface created through direct chemical coupling to a BIACORE™ chip to form a captured antibody surface.

[16] = molecular target: T8, wild-type human Ang-2 (hAng-2-WT); assay: SPR, captured Ab, 25°C
Procedure: as §4

[17] = molecular target: T13, Full-length wild-type human Ang-1 (hAng-1-WT) (human, UniProt Q15389 20-498, limits assumed); assay: SPR, captured Ab, 25°C
T13 construct: also called recombinant human Ang-1 (R&D Systems)
T13 sequence (looked up): T5 sequence (looked up)
Procedure: as §4

Monomeric hAng-2FD [18] = molecular target: T7, Monomeric hAng-2FD; assay: SPR, captured Ab, 37°C
Procedure: as §4

[19] = molecular target: T8, wild-type human Ang-2 (hAng-2-WT); assay: SPR, captured Ab, 37°C
Procedure: as §4

[20] = molecular target: T13, Full-length wild-type human Ang-1 …; assay: SPR, captured Ab, 37°C
Procedure: as §4

T10 sequence (chain, as listed by the source limits assumed): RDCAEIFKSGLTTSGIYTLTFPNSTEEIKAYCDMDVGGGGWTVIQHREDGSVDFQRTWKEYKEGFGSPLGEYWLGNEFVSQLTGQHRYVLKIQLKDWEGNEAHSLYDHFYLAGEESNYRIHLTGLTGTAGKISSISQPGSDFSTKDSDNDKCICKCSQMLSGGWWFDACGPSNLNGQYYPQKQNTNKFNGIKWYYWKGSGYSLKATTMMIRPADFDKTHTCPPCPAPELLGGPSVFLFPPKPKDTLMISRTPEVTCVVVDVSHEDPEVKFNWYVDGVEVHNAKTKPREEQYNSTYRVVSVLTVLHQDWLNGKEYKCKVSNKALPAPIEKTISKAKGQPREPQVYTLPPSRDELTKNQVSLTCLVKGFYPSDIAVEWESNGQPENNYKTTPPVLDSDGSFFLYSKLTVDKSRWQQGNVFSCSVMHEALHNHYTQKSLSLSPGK
T11 sequence (chain, as listed by the source limits assumed): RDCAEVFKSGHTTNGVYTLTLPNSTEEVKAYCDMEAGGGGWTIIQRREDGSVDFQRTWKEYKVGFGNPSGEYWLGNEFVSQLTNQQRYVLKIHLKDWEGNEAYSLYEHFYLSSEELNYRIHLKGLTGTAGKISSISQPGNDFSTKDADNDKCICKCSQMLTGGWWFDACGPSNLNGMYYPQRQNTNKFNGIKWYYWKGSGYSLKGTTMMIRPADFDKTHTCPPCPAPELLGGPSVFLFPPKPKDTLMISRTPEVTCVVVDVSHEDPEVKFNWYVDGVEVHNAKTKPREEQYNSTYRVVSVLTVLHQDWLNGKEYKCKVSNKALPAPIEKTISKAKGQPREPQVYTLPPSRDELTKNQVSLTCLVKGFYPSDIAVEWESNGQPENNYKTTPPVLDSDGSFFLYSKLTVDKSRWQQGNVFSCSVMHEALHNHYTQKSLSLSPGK
T9 sequence (chain, as listed by the source limits assumed): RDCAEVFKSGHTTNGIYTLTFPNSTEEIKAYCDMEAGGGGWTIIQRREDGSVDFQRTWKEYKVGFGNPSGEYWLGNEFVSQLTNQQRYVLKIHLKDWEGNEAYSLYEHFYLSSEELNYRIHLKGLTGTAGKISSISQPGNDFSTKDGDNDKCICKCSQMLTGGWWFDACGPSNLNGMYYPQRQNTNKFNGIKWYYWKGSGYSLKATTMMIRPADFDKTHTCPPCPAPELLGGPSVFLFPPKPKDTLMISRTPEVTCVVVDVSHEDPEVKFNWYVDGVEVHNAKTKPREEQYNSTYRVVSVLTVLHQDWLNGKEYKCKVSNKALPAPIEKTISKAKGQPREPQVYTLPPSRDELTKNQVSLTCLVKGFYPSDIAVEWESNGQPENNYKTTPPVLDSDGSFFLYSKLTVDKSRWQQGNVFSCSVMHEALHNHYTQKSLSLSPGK
T1 sequence (chain, as listed by the source limits assumed): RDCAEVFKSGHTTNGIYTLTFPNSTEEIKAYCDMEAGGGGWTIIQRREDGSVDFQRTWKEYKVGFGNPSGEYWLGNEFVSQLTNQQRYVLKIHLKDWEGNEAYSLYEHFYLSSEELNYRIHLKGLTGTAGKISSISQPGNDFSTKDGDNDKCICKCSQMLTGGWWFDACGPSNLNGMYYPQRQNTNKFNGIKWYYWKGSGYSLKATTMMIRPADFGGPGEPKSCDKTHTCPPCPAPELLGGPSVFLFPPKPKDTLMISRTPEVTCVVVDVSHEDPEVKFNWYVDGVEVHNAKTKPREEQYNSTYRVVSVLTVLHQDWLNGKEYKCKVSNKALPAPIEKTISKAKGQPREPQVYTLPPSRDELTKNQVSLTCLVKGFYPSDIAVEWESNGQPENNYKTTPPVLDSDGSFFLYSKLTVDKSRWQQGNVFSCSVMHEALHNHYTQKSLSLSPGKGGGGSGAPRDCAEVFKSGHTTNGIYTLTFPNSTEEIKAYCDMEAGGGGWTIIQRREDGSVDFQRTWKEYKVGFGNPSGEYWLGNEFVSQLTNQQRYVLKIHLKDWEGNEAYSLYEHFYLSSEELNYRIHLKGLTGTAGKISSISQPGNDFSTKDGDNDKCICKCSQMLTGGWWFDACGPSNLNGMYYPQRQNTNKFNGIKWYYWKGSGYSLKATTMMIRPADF

- IC50 (Biotin-hBA2): 8 pM
- Percent Blocking of Ang-2FD Binding to Tie-2 (Human Ang-2FD-hFc): 97.1%
- Percent Blocking of Ang-2FD Binding to Tie-2 (Mouse Ang-2FD-hFc): 95.9%
- Percent Blocking of Ang-2FD Binding to Tie-2 (Monkey Ang-2FD-hFc): 99.8%
- Percent of Negative Control Binding (hAng-1-WT [1]): 83%
- RU (average) (hAng-1-WT [2]): 140 RU
B1: H1H706P (antibody, human IgG1, V domains shown)
VH: QVQLVESGGGVVQPGRSLRLSCAASGFTFSSYGMHWVRQAPDKGLEWVAVKWDDGSNKYYADSVKGRFTISRDNSKNTLYLQMNSLRAEDTAVYYCAREGPYDFYSGYGAFDIWGQGTMVTVSS
VL: DIQMTQSPSSLSASVGDRVTITCRASQGISNYLAWFQQKPGKAPKSLIYAASSLQSGVPSKFSGSGSGTDFTLTISSLQPEDFATYYCQQYNSYPRTFGQGTKVEIK
notes: Human IgG1

- Kd [3]: 0.0172 nM
- T1/2 [3]: 442 min
- Kd (Monomeric hAng-2FD [4]): 1.02 nM
- T1/2 (Monomeric hAng-2FD [4]): 42.1 min
- Kd [5]: 0.0308 nM
- T1/2 [5]: 837 min
- Kd [6]: 0.114 nM
- T1/2 [6]: 127 min
- T1/2 [7]: 115 min
- Kd [8]: 0.346 nM
- T1/2 [8]: 164 min
- Kd [9]: 0.385 nM
- T1/2 [9]: 33 min
- Kd [10]: 0.244 nM
- T1/2 [10]: 24 min
- Kd [11]: 0.116 nM
- T1/2 [11]: 23 min
- Kd [12]: 0.215 nM
- T1/2 [12]: 26 min
- Kd [13]: 0.32 nM
- T1/2 [13]: 11 min
- Kd [14]: 0.105 nM
- T1/2 [14]: 18 min
- Kd (Monomeric hAng-2FD [15]): 0.424 nM
- T ½ (Monomeric hAng-2FD [15]): 93 min
- Kd [16]: 0.0335 nM
- T ½ [16]: 450 min
- Kd [17]: 0.093 nM
- T ½ [17]: 303 min
- Kd (Monomeric hAng-2FD [18]): 1.42 nM
- T ½ (Monomeric hAng-2FD [18]): 21 min
- Kd [19]: 0.347 nM
- T ½ [19]: 48 min
- Kd [20]: 0.0312 nM
- T ½ [20]: 222 min
B2: H1H744N (antibody, V domains shown)
VH: QVQLVQSGVEVKKPGASVKVSCKTSGYTFSNNGFSWVRQAPGQGLEWLGWISGYNGNTNYAQKFQGRVTMTTDTSTSTAYMELRTLRSDDTAVYYCARDQDYSNFHWLDPWGQGTLVTVAS
VL: DIQMTQSPSSVSASVGDRVIITCRASQGLSSWLAWYQQKPGTAPKLLIHSASSLQTGVPSRFSGSGSGTEFALTINSLQPEDFGTYYCQQANSFPLTFGGGTRVEIK

- Percent of Negative Control Binding (hAng-1-WT [1]): 42%
- RU (average) (hAng-1-WT [2]): 71 RU
B3: hTie-2-mFc (Fc fusion)
chain: AMDLILINSLPLVSDAETSLTCIASGWRPHEPITIGRDFEALMNQHQDPLEVTQDVTREWAKKVVWKREKASKINGAYFCEGRVRGEAIRIRTMKMRQQASFLPATLTMTVDKGDNVNISFKKVLIKEEDAVIYKNGSFIHSVPRHEVPDILEVHLPHAQPQDAGVYSARYIGGNLFTSAFTRLIVRRCEAQKWGPECNHLCTACMNNGVCHEDTGECICPPGFMGRTCEKACELHTFGRTCKERCSGQEGCKSYVFCLPDPYGCSCATGWKGLQCNEACHPGFYGPDCKLRCSCNNGEMCDRFQGCLCSPGWQGLQCEREGIPRMTPKIVDLPDHIEVNSGKFNPICKASGWPLPTNEEMTLVKPDGTVLHPKDFNHTDHFSVAIFTIHRILPPDSGVWVCSVNTVAGMVEKPFNISVKVLPKPLNAPNVIDTGHNFAVINISSEPYFGDGPIKSKKLLYKPVNHYEAWQHIQVTNEIVTLNYLEPRTEYELCVQLVRRGEGGEGHPGPVRRFTTASIGLPPPRGLNLLPKSQTTLNLTWQPIFPSSEDDFYVEVERRSVQKSDQQNIKVPGNLTSVLLNNLHPREQYVVRARVNTKAQGEWSEDLTAWTLSDILPPQPENIKISNITHSSAVISWTILDGYSISSITIRYKVQGKNEDQHVDVKIKNATIIQYQLKGLEPETAYQVDIFAENNIGSSNPAFSHELVTLPESQAPADLGGGKGPGEPRGPTIKPCPPCKCPAPNLLGGPSVFIFPPKIKDVLMISLSPIVTCVVVDVSEDDPDVQISWFVNNVEVHTAQTQTHREDYNSTLRVVSALPIQHQDWMSGKEFKCKVNNKDLPAPIERTISKPKGSVRAPQVYVLPPPEEEMTKKQVTLTCMVTDFMPEDIYVEWTNNGKTELNYKNTEPVLDSDGSYFMYSKLRVEKKNWVERNSYSCSVVHEGLHNHHTTKSFSRTPGK
notes: also called hTie-2-mFc-ecto; human Tie-2 conjugated to mouse IgG

- IC50 (Biotin-hBA2): 4 pM
- Percent Blocking of Ang-2FD Binding to Tie-2 (Human Ang-2FD-hFc): 96.6%
- Percent Blocking of Ang-2FD Binding to Tie-2 (Mouse Ang-2FD-hFc): 97.1%
- Percent Blocking of Ang-2FD Binding to Tie-2 (Monkey Ang-2FD-hFc): 96.6%
- Percent of Negative Control Binding (hAng-1-WT [1]): 34%
- RU (average) (hAng-1-WT [2]): 57 RU
B4: H1H724N (antibody, V domains shown)
VH: QVQLVESGGGVVQPGRSLRLSCAASGFTLSNYGMHWVRQAPGKGLEWVAVIWHDGSNTYYADSVKGRFTISRDNSKNTLYLQMNSLRAEDTAVYYCTREGLDFWSGYYPNWFDPWGQGTLVTVSS
VL: DIQMTQSPSSLSASVGDRVTITCRASQGIRNDLGWYQQKPGKAPKRLIYAASNLQGGVPSRFSGSGSGTEFTLTISSLQPEDFAAYYCLQHNIYPLTFGGGTKVEIK
